Measured values from patent US20210145976A1.
Numbering of substitutions follows the chain as printed.

B1: SEQ ID NO 237 (designed binder)
chain: MLPAPKNLVVSRVTEDSARLSWTAPDAAFDSFTILYGEMGTTGEAIVLTVPGSERSYDLTGLKPGTEYDVFIEGVKGGELSWPLSAIFTT
B2: SEQ ID NO 261 (designed binder)
chain: B1 chain with L35V, M39W, T41V, T42P, F71W, E79D, F88V
B3: SEQ ID NO 246 (designed binder)
chain: B1 chain with L35A, G37N, M39Q, G40N, T41H, T42Y, D69G, F71W, E79T
B4: SEQ ID NO 235 (designed binder)
chain: MLPAPKNLVVSRVTEDSARLSWTAPDAAFDSFSINYREWWSDGEAIYLPVPGSERSYDLTGLKPGTEYAVYIQGVKGGSRSFPLHAWFTT
B5: SEQ ID NO 248 (designed binder)
chain: MGSLPAPKNLVVSRVTEDSARLSWTAPDAAFDSFAIPYAEPSPTGEAIVLTVPGSERSYDLTGLKPGTEYPVWIQGVKGGSPSAPLSAEFTT
B6: SEQ ID NO 226 (designed binder)
chain: MLPAPKNLVVSRVTEDSARLSWTAPDAAFDSFHIIYEEVLTEGEAIYLRVPGSERSYDLTGLKPGTEYGVTIKGVKGGAYSIPLIATFTT
B7: SEQ ID NO 241 (designed binder)
chain: MLPAPKNLVVSRVTEDSARLSWTAPDAAFDSFNIYYYEWFVSGEAIVLTVPGSERSYDLTGLKPGTEYFVDIDGVKGGYRSRPLSAIFTT
B8: SEQ ID NO 265 (designed binder)
chain: B7 chain with N33W, Y37I, W39T, F40S, V41H, S42Q, D71L, D73K, R80D, R82V
B9: SEQ ID NO 224 (designed binder)
chain: MLLAPKNLVVSRVTEDSARLSWTAPDAAFDSFRYLEQGLYGEAIVLTVPGSERSYDLTGLKPGTEYWVEIIGVKGGEYSTPLSAIFTT
B10: SEQ ID NO 223 (designed binder)
chain: MLPAPKNLVVSRVTEDSARLSWTAPDAAFDSFTIWYAEALGDGEAIVLTVPGSERSYDLTGLKPGTEYFVDIPGVKGGTRSSPLSAISTT
B11: SEQ ID NO 247 (designed binder)
chain: MLPAPKNLVVSRVTEDSARLSWTAPDAAFDSFYIEWTYKGEAIVLTVPGSERSYDLTGLKPGTEYFVGIPGVKGGKSSYPLSAIFTT
B12: SEQ ID NO 252 (designed binder)
chain: MLPAPKNLVVSRVTEDSARLSWTAPDAAFDSFDIGYTEYGGYGEAIVLTVPGSERSYDLTGLKPGTEYWVLIQGVKGGGSSVPLSAIFTT
B13: SEQ ID NO 231 (designed binder)
chain: MLPAPKNLVVSRVTEDSARLSWTAPDAAFDSFEIPYIETVALGEAIVLTVPGSERSYDLTGLKPGTEYYVEIYGVKGGSYSYPLSAISTT
B14: SEQ ID NO 266 (designed binder)
chain: MLPAPKNLVVSRVTEDSARLSWTAPDAAFDSFMIRYQEGTRWGEAIVLTVPGSERSYDLTGLKPGTEYIVMIAGVKGGQISLPLSAIFTT
B15: SEQ ID NO 245 (designed binder)
chain: MLPAPKNLVVSRITEDSARLSWTAPDAAFDSFGIAYNEGDHYGEAIVLTVPGSERSYDLTGLKPGTEYSVWIEGVKGGNLSYPLSAIFTT
B16: SEQ ID NO 260 (designed binder)
chain: MLPAPKNLVVSRVTEDSARLSWTAPDAAFDSFNISYYEYFVHGEAIVLTVPGSERSYDLTGLKPGTEYYVIDGVKGGDPSEPLSAIFTT
B17: SEQ ID NO 222 (designed binder)
chain: MLPAPKNLVVSRVTEDSARLSWTAPDAAFDSFYIEYFEWTGSGEAIVLTVPGSERSYDLTGLKPGTEYNVAIYGVKGGAVSYPLSAIFTT
B18: SEQ ID NO 255 (designed binder)
chain: B12 chain with G35E, T37Y, Y39L, G40I, Y42R, L71G, Q73Y, G79W, S80L, V82R
B19: SEQ ID NO 262 (designed binder)
chain: B17 chain with Y33A, W39Y, S42E, N69Y, A71G, A79Y, V80L, Y82R
B20: SEQ ID NO 253 (designed binder)
chain: B17 chain with Y33T, F37W, W39T, T40I, S42G, N69Y, A71G, A79W, V80W, Y82R
B21: SEQ ID NO 225 (designed binder)
chain: B17 chain with Y33K, W39Y, T40V, S42Y, N69Y, A79W, V80Y, Y82R
B22: SEQ ID NO 239 (designed binder)
chain: MLPAPKNLVVSRVTEDSARLSWTAPDAAFDSFAITYYEGRWRGEAIVLTVPGSERSYDLTGLKPGTEYGVPIRGVKGGTGSLPLSAIFTT
B23: SEQ ID NO 238 (designed binder)
chain: MLPAPKNLVVSRVTEDSARLSWTAPDAAFDSFKIFYQEFGGEAIVLTVPGSERSYDLTGLKPGTEYWVDIYGVKGGYTSSPLSAIFTT
B24: SEQ ID NO 250 (designed binder)
chain: MLPAPKNLVVSRVTEDSARLSWTAPDAAFDSFFIGYLEPYPPGEAIVLTVPGSERSYDLTGLKPGTEYAVEIAGVKGGLLSSPLSAISTT
B25: SEQ ID NO 263 (designed binder)
chain: B24 chain with Y40Q, A69N, E71T, A73Q, L79F, L80P, S82M
B26: SEQ ID NO 251 (designed binder)
chain: B24 chain with Y40Q, A69N, E71T, A73Q, L79F, L80P, S82M, S88V
B27: SEQ ID NO 257 (designed binder)
chain: MLPAPKNLVVSRVTEDSARLSWTAPDAAFDSFHIVYHEPRPSGEAIVLTVPGSERSYDLTGLKPGTEYEVGIVSVKGGDLSVPLSAIFTT
B28: SEQ ID NO 49 (designed binder)
chain: MLPAPKNLVVSRVTEDSARLSWTAPDAAFDSFGISYLEWWEDGEAIVLTVPGSERSYDLTGLKPGTEYWVSIAGVKGGKRSYPLSAIFTT
B29: SEQ ID NO 52 (designed binder)
chain: B28 chain with G33K, L37Q, S71N, A73S, K79V, R80Q
B30: SEQ ID NO 229 (designed binder)
chain: B28 chain with G33S, S35H, L37D, W39D, E41R, D42R, W69L, S71E, A73P, R80A
B31: SEQ ID NO 240 (designed binder)
chain: B28 chain with G33R, S35K, E41L, D42G, S71D, A73Q, K79V, R80L, Y82W
B32: SEQ ID NO 242 (designed binder)
chain: B28 chain with G33P, S35K, E41S, D42W, W69R, S71P, A73S, K79G, R80M, Y82G
B33: SEQ ID NO 264 (designed binder)
chain: B28 chain with G33R, S35K, L37Q, E41V, D42E, W69V, S71Q, K79L, R80S
B34: SEQ ID NO 227 (designed binder)
chain: B28 chain with G33R, S35R, E41N, D42I, W69H, S71D, A73W, K79Y, R80S
B35: SEQ ID NO 51 (designed binder)
chain: B28 chain with G33F, S35K, L37I, E41A, W69L, S71E, A73Y, R80W, Y82W
B36: SEQ ID NO 259 (designed binder)
chain: MLPAPKNLVVSRVTEDSARLSWTAPDAAFDSFTIEYFEFVDAGEAIVLTVPGSERSYDLTGLKPGTEYWVEIWGVKGGSWSKPLSAIFTT
B37: SEQ ID NO 233 (designed binder)
chain: MLPAPKNLVVSRVTEDSARLSWTAPDAAFDSFYIVYAEPIPNGEAIVLTVPGSERSYDLTGLKPGTEYSVLIHGVKGGRNSDPLSAIFTT
B38: SEQ ID NO 258 (designed binder)
chain: B1 chain with T33F, L35P, G37A, M39P, G40S, T41P, F71W, E79V
B39: SEQ ID NO 254 (designed binder)
chain: B37 chain with Y33F, V35P, I40S, N42T, R79H, N80L, F88S
B40: SEQ ID NO 256 (designed binder)
chain: B27 chain with S74G
B41: SEQ ID NO 244 (designed binder)
chain: MLPAPKNLVVSRVTEDSARLSWTAPDAAFDSFHIDYSEFHLRGEAIVLTVPGSERSYDLTGLKPGTEYLGIFGVKGGEQSGPLSAIFTT
B42: SEQ ID NO 230 (designed binder)
chain: MLPAPKNLVVSRVTEDSARLSWTAPDAAFDSFQIRYPKRWISGEAIVLTVPGSERSYDLTGLKPGTEYEVVIRGVKGGEYSWPLSAIFTT

target: human serum albumin (human) (UniProt P02768); assay: screening ELISA
Sequence (P02768 25-609 limits assumed): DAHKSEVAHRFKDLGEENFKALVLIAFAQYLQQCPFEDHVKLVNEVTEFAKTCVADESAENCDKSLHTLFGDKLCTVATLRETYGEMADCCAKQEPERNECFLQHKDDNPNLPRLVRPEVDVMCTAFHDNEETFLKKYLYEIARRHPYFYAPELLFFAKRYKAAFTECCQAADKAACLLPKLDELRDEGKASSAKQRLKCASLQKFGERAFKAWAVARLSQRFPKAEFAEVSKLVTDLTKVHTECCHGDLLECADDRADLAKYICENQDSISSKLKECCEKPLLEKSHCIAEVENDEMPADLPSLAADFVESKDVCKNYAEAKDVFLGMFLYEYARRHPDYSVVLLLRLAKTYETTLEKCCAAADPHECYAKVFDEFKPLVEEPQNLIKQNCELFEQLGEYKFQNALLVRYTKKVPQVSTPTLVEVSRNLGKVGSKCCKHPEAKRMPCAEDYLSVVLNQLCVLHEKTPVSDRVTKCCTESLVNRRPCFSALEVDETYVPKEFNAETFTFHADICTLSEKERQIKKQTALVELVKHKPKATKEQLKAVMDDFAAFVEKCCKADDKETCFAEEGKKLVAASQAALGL

HSA | Binder
1850 | B1
5550 | B2
1400 | B3
1350 | B4
15100 | B5
2850 | B6
2200 | B7
3950 | B8
16500 | B9
52000 | B10
53000 | B11
2500 | B12
26500 | B13
2650 | B14
2900 | B15
14400 | B16
3950 | B17
4550 | B18
2350 | B19
2450 | B20
14100 | B21

HSA | Binder
5050 | B22
4250 | B23
18800 | B24
20400 | B25
9650 | B26
3950 | B27
11500 | B28
1760 | B29
3700 | B30
2050 | B31
4900 | B32
2550 | B33
2300 | B34
4240 | B35
2100 | B36
2600 | B37
10600 | B38
90000 | B39
2200 | B40
1650 | B41
1900 | B42
